Assay results reported in US20210355178A1 (published 2021).

Target: complement factor C3b (UniProt P01024 23-667; P01024 749-1663)
Assay: SPR; steady-state fit

complement factor C3b, sequence (P01024 23-667, chain 1 of 2): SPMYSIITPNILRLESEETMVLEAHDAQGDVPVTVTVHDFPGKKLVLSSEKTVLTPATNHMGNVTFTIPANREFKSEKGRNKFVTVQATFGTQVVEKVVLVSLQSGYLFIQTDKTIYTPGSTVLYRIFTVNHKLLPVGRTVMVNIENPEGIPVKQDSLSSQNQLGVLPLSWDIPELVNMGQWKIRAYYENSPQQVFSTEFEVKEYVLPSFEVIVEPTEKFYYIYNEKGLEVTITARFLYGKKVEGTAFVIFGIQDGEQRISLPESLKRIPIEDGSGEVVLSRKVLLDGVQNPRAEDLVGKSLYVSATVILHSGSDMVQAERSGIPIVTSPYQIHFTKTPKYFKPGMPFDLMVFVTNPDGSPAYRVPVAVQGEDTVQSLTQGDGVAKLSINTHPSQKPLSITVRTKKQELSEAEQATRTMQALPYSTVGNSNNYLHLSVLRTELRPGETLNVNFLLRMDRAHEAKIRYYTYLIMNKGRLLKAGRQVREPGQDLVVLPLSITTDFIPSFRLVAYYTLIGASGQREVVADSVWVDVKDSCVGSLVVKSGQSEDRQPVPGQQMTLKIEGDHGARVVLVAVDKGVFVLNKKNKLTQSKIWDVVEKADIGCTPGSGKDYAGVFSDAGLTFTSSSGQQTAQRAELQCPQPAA
complement factor C3b, sequence (P01024 749-1663, chain 2 of 2): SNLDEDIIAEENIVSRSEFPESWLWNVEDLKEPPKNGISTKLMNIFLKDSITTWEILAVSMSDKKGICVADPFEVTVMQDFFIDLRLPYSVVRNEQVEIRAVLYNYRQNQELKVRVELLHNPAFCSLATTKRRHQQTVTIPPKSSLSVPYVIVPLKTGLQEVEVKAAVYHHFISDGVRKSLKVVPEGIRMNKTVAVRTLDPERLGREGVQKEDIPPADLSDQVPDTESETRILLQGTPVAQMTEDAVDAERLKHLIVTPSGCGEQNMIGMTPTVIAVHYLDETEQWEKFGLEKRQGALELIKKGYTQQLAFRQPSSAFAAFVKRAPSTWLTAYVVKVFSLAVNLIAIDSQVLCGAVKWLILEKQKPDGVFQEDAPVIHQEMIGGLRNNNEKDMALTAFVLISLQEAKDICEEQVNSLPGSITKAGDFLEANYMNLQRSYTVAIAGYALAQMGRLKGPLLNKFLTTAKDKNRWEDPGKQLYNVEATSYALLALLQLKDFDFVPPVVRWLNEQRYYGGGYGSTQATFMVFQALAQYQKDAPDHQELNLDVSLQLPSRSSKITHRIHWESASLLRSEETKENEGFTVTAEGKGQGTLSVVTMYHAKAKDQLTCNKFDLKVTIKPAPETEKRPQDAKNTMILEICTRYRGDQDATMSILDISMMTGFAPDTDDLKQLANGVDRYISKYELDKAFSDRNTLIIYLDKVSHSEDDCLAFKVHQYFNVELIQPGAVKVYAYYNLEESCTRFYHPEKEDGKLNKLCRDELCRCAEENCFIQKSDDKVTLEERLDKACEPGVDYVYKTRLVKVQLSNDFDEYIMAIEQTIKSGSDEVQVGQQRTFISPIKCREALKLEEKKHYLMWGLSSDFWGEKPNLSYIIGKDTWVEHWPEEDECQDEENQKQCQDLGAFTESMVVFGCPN

| Binder | Kd |
| --- | --- |
| miniFH-Fc (Fc fusion) EDCNELPPRRNTEILTGSWSDQTYPEGTQAIYKCRPGYRSLGNIIMVCRKGEWVALNPLRKCQKRPCGHPGDTPFGTFTLTGGNVFEYGVKAVYTCNEGYQLLGEINYRECDTDGWTNDIPICEVVKCLPVTAPENGKIVSSAMEPDREYHFGQAVRFVCNSGYKIEGDEEMHCSDDGFWSKEKPKCVEISCKSPDVINGSPISQKIIYKENERFQYKCNMGYEYSERGDAVCTESGWRPLPSCEEAGGGGGGGGGGGGGKCGPPPPIDNGDITSFPLSVYAPASSVEYQCQNLYQLEGNKRITCRNGQWSEPPKCLHPCVISREIMENYNIALRWTAKQKLYSRTGESVEFVCKRGYRLSSRSHTLRTTCWDGKLEYPTCAGPGGGGGPGCPAPELLGGPSVFLFPPKPKDTLMISRTPEVTCVVVDVSHEDPEVKFNWYVDGVEVHNAKTKPREEQYQSTYRVVSVLTVLHQDWLNGKEYKCKVSNKALPAPIEKTISKAKGQPREPQVYTLPPSREEMTKNQVSLTCLVKGFYPSDIAVEWESNGQPENNYKTTPPVLDSDGSFFLYSKLTVDKSRWQQGNVFSCSVMHEALHNHYTQKSLSLSPGGGGGGG | 300 nM |
| miniFH (designed binder) EDCNELPPRRNTEILTGSWSDQTYPEGTQAIYKCRPGYRSLGNIIMVCRKGEWVALNPLRKCQKRPCGHPGDTPFGTFTLTGGNVFEYGVKAVYTCNEGYQLLGEINYRECDTDGWTNDIPICEVVKCLPVTAPENGKIVSSAMEPDREYHFGQAVRFVCNSGYKIEGDEEMHCSDDGFWSKEKPKCVEISCKSPDVINGSPISQKIIYKENERFQYKCNMGYEYSERGDAVCTESGWRPLPSCEEAGGGGGGGGGGGGGKCGPPPPIDNGDITSFPLSVYAPASSVEYQCQNLYQLEGNKRITCRNGQWSEPPKCLHPCVISREIMENYNIALRWTAKQKLYSRTGESVEFVCKRGYRLSSRSHTLRTTCWDGKLEYPTCAKR | 588 nM |
